Reference: patent US20040048790A1

Each substance was assayed against HLA-A*0206 (human) (assay: 125I-probe peptide inhibition, purified HLA). Details: not given.
Work on p53.65 (10-mer) (peptide) yielded an IC50 of 841 nM.

These substances were tested against HLA-A*0301 (human) (assay: 125I-probe peptide inhibition, purified HLA). Details: not given.
For p53.240 (9-mer …) (peptide), the IC50 was 550 nM.

The substances below were run against HLA-A*0201 (human) (assay: 125I-probe peptide inhibition, purified HLA). Details: not given.
Work on p53.129 (9-mer) (peptide) yielded an IC50 of 735 nM.

What follows are substances tested against HLA-A*6801 (human) (assay: 125I-probe peptide inhibition, purified HLA). Details: not given.
p53.273 (8-mer) (peptide) was tested, and the IC50 was 571 nM.

These substances were tested against HLA-A*2401 (human) (assay: competition vs 125I-labelled probe peptide, purified HLA, gel filtration). Details: scale: ratio to standard peptide.
For “p53 peptide, position 117, 10 amino acids”, the relative binding ratio was 0.0001. “p53 peptide, position 340, 9 amino acids” was tested, and the relative binding ratio was 0.0001. For “p53 peptide, position 106, 8 amino acids”, the relative binding ratio was 0.028. With p53 peptide, position 18, 8 amino acids the relative binding ratio was 0.0016. “p53 peptide, position 43, 11 amino acids” showed a relative binding ratio of 0.0023. “p53 peptide, position 102, 8 amino acids” showed a relative binding ratio of 0.11. Substance p53 peptide, position 18, 9 amino acids has a relative binding ratio of 0.001. Work on “p53 peptide, position 204, 9 amino acids” yielded a relative binding ratio of 0.001. “p53 peptide, position 22, 11 amino acids” showed a relative binding ratio of -0.0003. Substance “p53 peptide, position 106, 9 amino acids” has a relative binding ratio of 0.02. For “p53 peptide, position 102, 10 amino acids”, the relative binding ratio was 0.12. In the case of “p53 peptide, position 337, 8 amino acids”, the relative binding ratio is reported as -0.0004. For “p53 peptide, position 125, 10 amino acids”, the relative binding ratio was 5.1.

Each substance was assayed against HLA-A*0301 (human) (assay: competition with 125I-labelled probe peptide for purified HLA-A*0301). Details: not given.
Work on “p53 peptide, position 311, 10 amino acids” yielded a relative binding ratio of 0.0035.
